{
  "source": "paper PMC5932034",
  "about": "“Structures of chaperone-substrate complexes docked onto the export gate in a type III secretion system” (Nature Communications, 2018)",
  "settings_in_all_cases": "both partners purified",
  "key": {"[1]": {"target": "T1, cytoplasmic domain of Salmonella enterica serovar Typhimurium FlhA (FlhA^C) (Salmonella enterica serovar Typhimurium …, UniProt P40729 362-692)", "T1 construct": "FlhA, globular cytoplasmic domain, Salmonella enterica serovar Typhimurium ST313, residues 362-692 (36.4 kDa); also called export gate platform protein; source: E. coli BL21(DE3), purified (Ni Sepharose, TEV tag removal, Superdex 75)", "T1 sequence": "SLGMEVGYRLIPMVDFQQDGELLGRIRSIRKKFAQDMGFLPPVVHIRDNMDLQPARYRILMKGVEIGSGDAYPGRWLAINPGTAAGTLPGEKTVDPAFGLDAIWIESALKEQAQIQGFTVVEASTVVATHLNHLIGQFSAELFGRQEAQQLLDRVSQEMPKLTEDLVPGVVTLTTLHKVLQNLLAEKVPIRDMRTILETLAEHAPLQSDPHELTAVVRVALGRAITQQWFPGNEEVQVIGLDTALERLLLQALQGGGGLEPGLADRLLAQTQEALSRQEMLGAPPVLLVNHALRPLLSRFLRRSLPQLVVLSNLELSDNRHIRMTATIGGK", "experiment": "ITC; FlhA^C and variants (0.1–0.2 mM) in the cell, FliT-FliD, FliS-FliC and variants (1.0–2.0 mM) in the syringe; 25 °C; 50 mM NaPi pH 6.8, 300 mM NaCl, 0.05% NaN3; one-site binding model"}, "[2]": {"target": "T2, FliS (UniProt P26609 1-135)", "T2 construct": "FliS, flagellar chaperone of flagellin FliC; Used free in the NMR titration; in the crystal structure it stands as the FliS part of the fused chain m10; also called flagellar chaperone FliS; substrate-free FliS; source: E. coli BL21(DE3), purified (Ni Sepharose, TEV tag removal, Superdex 75)", "T2 sequence": "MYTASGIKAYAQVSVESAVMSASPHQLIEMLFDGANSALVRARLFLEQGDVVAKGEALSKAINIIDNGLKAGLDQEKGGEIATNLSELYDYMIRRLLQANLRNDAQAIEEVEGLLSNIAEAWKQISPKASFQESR", "experiment": "crystal structure; ternary complexes of FlhA^C with the fused chaperone–substrate constructs; proteins at 10 g/L"}, "[3]": {"target": "T1, cytoplasmic domain of Salmonella …", "experiment": "NMR titration; unlabelled partner added to isotopically labelled FlhA^C (and unlabelled FlhA^C to labelled chaperone–substrate complex); 25 °C; 50 mM NaPi pH 6.8, 300 mM NaCl, 0.05% NaN3; typically 0.3 mM labelled protein"}, "[4]": {"target": "T3, FliT (Salmonella enterica serovar Typhimurium …, UniProt P0A1N2 1-122)", "T3 construct": "FliT, flagellar chaperone of FliD, Salmonella enterica serovar Typhimurium ST313; Used free in the NMR titration; in the structures it stands as the FliT part of the fused chain m9; also called flagellar chaperone FliT; substrate-free FliT; source: E. coli BL21(DE3), purified (Ni Sepharose, TEV tag removal, Superdex 75)", "T3 sequence": "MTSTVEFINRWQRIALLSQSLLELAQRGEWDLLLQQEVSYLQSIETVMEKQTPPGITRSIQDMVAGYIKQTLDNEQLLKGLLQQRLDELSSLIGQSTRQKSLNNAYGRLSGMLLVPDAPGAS", "experiment": "crystal structure; ternary complexes of FlhA^C with the fused chaperone–substrate constructs; proteins at 10 g/L"}},
  "data": [
    {"binder": "FliS−FliC chaperone–substrate complex (non-fused) (complex, FliS; FliC, flagellin; Complex formed beforehand and added to FlhA^C; source: E. coli BL21(DE3), purified (Ni Sepharose, TEV tag removal, Superdex 75)) chain 1: MYTASGIKAYAQVSVESAVMSASPHQLIEMLFDGANSALVRARLFLEQGDVVAKGEALSKAINIIDNGLKAGLDQEKGGEIATNLSELYDYMIRRLLQANLRNDAQAIEEVEGLLSNIAEAWKQISPKASFQESR chain 2: […]", "values": [
      {"measurement": "Kd", "setting": "[1]", "value": "~8", "unit": "µM"}
    ]},
    {"binder": "IEDSDYATEVSNMSRAQILQQAGTSVLAQANQVPQNVLSLLR (domain or fragment, FliC^C: flagellin FliC residues 454-495;; source: E. coli BL21(DE3), purified; stands as a part of the fused chain m10)", "note": "[FliC^C (FliC residues 454–495)]", "values": [
      {"measurement": "binding result", "setting": "[2]", "value": "binds"}
    ]},
    {"binder": "FlgN (natural protein, FlgN, chaperone of FlgK and FlgL, Salmonella enterica serovar Typhimurium ST313; also called chaperone FlgN; FlgN without substrate; source: E. coli BL21(DE3), purified (Ni Sepharose, TEV tag removal, Superdex 75)) MTRLSEILDQMTTVLNDLKTVMDAEQQQLSVGQINGSQLQRITEEKSSLLATLDYLEQQRRLEQNAQRSANDDIAERWQAITEKTQHLRDLNQHNGWLLEGQIERNQQALEVLKPHQEPTLYGADGQTSVSHRGGKKISI", "values": [
      {"measurement": "binding result", "setting": "[3]", "value": "binds"}
    ]},
    {"binder": "SIDETVARYKAQFTQLDTMMSKLNNTSSYLTQQFTAMNKS (domain or fragment, source: E. coli BL21(DE3), purified; stands as a part of the fused chain m9)", "note": "[FliD^C (last 40 C-terminal residues of FliD)]", "values": [
      {"measurement": "binding result", "setting": "[4]", "value": "binds"}
    ]}
  ]
}
